Measurements reported in US20040086947A1.
No end group written: not given here.

Assays:
[1] = substrate: FPB antiserum (rabbit polyclonal antiserum to human fibrinopeptide B, R4097, bleed I3); experiment: competitive ELISA; synthetic FPB in solution against FPB antiserum binding to FPB-coated wells
[2] = substrate: FPB antiserum (rabbit polyclonal antiserum to human fibrinopeptide B, R4097, bleed I3); experiment: competitive ELISA; reference synthetic FPB
[3] = substrate: FPB antiserum (rabbit polyclonal antiserum to human fibrinopeptide B, R4097, bleed I3); experiment: competitive ELISA; des-arg FPB in solution against FPB antiserum binding to FPB-coated wells

Binder	IC50 [1]	cross-reactivity (IC50 of FPB divided by IC50 of des-arg FPB times 100) [2]	IC50 [3]
QGVNDNEEGFFSAR (also: N-terminal Gln or pyroglutamic acid not given here) [synthetic human fibrinopeptide B (FPB)]	6.7 nM	–	–
QGVNDNEEGFFSA (also: N-terminal Gln or pyroglutamic acid not given here) [synthetic des-arginine fibrinopeptide B (des-arg FPB)]	–	75%	8.9 nM
